Source: paper doi:10.1101/2025.11.11.687775
Read-outs that look alike come from different tables or passages of the source.

What was measured:
[1] = molecular target: microtubules of primary rat hippocampal neurons (rat (endogenous in primary hippocampal neurons)) (UniProt P68370)
[2] = molecular target: microtubules of primary rat hippocampal neurons (rat (endogenous in primary hippocampal neurons)) (UniProt P68370); assay: FRAP + reaction-diffusion simulation
[3] = molecular target: microtubules of Tau-knockout mouse neurons (mouse (endogenous in Tau-KO neurons)) (UniProt P68369)
[4] = molecular target: microtubules of primary rat hippocampal neurons (rat (endogenous in primary hippocampal neurons)) (UniProt P68370); assay: FRAP + reaction-diffusion simulation; remark: listed apart in the source
[5] = molecular target: microtubules of primary rat hippocampal neurons (rat (endogenous in primary hippocampal neurons)) (UniProt P68370); remark: listed apart in the source

| Substance | FRAP recovery plateau in rat neurons (Figure 3B) [1] | Kd [2] | other results |
| --- | --- | --- | --- |
| GFP-tagged wild-type human Tau, 0N4R isoform (AcGFP-Tau0N4R-His) (from UniProt P10636-6 1-383) (natural protein) | 0.712 | 3000 nM | koff [2]: > 0.1 s⁻¹; kon [2]: > 300000 M⁻¹ s⁻¹; FRAP recovery rate constant (K), n = 6 (read as Tau-KO neurons) [3]: 0.085; koff [4]: > 0.3 s⁻¹; kon [4]: > 100000 M⁻¹ s⁻¹; FRAP recovery rate constant (K) in rat neurons (Figure 3D), n = 12 [5]: 0.081 |
| GFP-tagged Tau 198A single alanine substitution mutant (natural protein) | 0.586 |  |  |
| GFP-tagged Tau 199A single alanine substitution mutant (natural protein) | 0.584 | 1350 nM |  |

More lines, main results first:

| FRAP recovery plateau in rat neurons (Figure 3B) [1] | Kd [2] | Substance | other results |
| --- | --- | --- | --- |
|  | 510 nM | GFP-tagged Tau 198A/199A/202A/205A mutant (4A) (natural protein) |  |
|  | 905 nM | GFP-tagged Tau 198A/199A mutant (2A) (natural protein) |  |
